Columns and labels:
Assay in all cases: BLI
[1] = biological target: gp120 B (clade B, 92US715.6) (HIV-1 isolate 92US715.6)
[2] = biological target: gp120 AE (clade E, 93TH976.17) (HIV-1 isolate 93TH976.17)
[3] = biological target: T1, gp120 Czm (clade C, 96ZM652) (HIV-1 isolate 96ZM652)
Bal gp120 [4] = biological target: Bal gp120 (HIV-1 isolate Bal)
[5] = biological target: T2, gp120 A2 (clade A, 92UG037.8) (HIV-1 isolate 92UG037.8)
[6] = biological target: T1, gp120 Czm (clade C, 96ZM652); remark: listed apart in the source
Bal gp120 [7] = biological target: Bal gp120 (HIV-1 isolate Bal); remark: listed apart in the source
[8] = biological target: T2, gp120 A2 (clade A, 92UG037.8); remark: listed apart in the source

B1: HmAb64 (antibody, V domains shown)
VH: QVQLVQSGAEVKKPGASVKVSCKASGYTFTSYDITWVRQAPGQGLEWMGWISAYNGDTNYAQRLQGRVTMTTDTSTSTAYMELRSLRSDDTAVYYCARAKHTVLVTAMRWFDPWGQGTLVTVSS
VL: DIQMTQSPSSLSASVGDRVTITCRASQSISNYLNWYQQKPGKAPKLLISATSSLQSGVPSRFSGSGSGTDFTLTISSLQPDDFATYYCQQSYSTPWTFGQGTKLEIK
- Kd [1]: 22.9 nM
- koff [1]: 0.000684 s⁻¹
- Kd [2]: 20 nM
- koff [2]: 0.000423 s⁻¹
- koff [3]: 0.000454 s⁻¹
- koff (Bal gp120 [4]): 0.000459 s⁻¹
- koff [5]: 0.000641 s⁻¹
- Kd [6]: 22.5 nM
- Kd (Bal gp120 [7]): 16 nM
- Kd [8]: 39.4 nM

— publication PMC11109196 (2024)
